# Laboratory results from patent US20210347852A1 (Regeneron, published 2021).
# Positions count from the first letter of the chain named.
# T1: Human VEGF121 (R&D SYSTEMS Cat #4644-VS) (human, UniProt P15692-9 27-147)
# T1 sequence (looked up): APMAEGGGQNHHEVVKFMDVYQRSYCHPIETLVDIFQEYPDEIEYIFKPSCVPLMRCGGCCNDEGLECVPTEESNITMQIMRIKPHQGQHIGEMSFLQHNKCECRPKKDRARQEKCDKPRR
# B1: REGN10187, VEGF Trap hIgG4 stealth Fc (Fc fusion)
# chain: SDTGRPFVEMYSEIPEIIHMTEGRELVIPCRVTSPNITVTLKKFPLDTLIPDGKRIIWDSRKGFIISNATYKEIGLLTCEATVNGHLYKTNYLTHRQTNTIIDVVLSPSHGIELSVGEKLVLNCTARTELNVGIDFNWEYPSSKHQHKKLVNRDLKTQSGSEMKKFLSTLTIDGVTRSDQGLYTCAASSGLMTKKNSTFVRVHEKESKYGPPCPPCPAPPVAGPSVFLFPPKPKDTLMISRTPEVTCVVVDVSQEDPEVQFNWYVDGVEVHNAKTKPREEQFNSTYRVVSVLTVLHQDWLNGKEYKCKVSNKGLPSSIEKTISKAKGQPREPQVYTLPPSQEEMTKNQVSLTCLVKGFYPSDIAVEWESNGQPENNYKTTPPVLDSDGSFFLYSRLTVDKSRWQEGNVFSCSVMHEALHNHYTQKSLSLSLGK
# B2: REGN10117, VEGF Trap hIgG2 Fc w/4 Cys (Fc fusion)
# chain: SDTGRPFVEMYSEIPEIIHMTEGRELVIPCRVTSPNITVTLKKFPLDTLIPDGKRIIWDSRKGFIISNATYKEIGLLTCEATVNGHLYKTNYLTHRQTNTIIDVVLSPSHGIELSVGEKLVLNCTARTELNVGIDFNWEYPSSKHQHKKLVNRDLKTQSGSEMKKFLSTLTIDGVTRSDQGLYTCAASSGLMTKKNSTFVRVHEKERKCCVECPPCPAPPVAGPSVFLFPPKPKDTLMISRTPEVTCVVVDVSHEDPEVQFNWYVDGVEVHNAKTKPREEQFNSTFRVVSVLTVVHQDWLNGKEYKCKVSNKGLPAPIEKTISKTKGQPREPQVYTLPPSREEMTKNQVSLTCLVKGFYPSDIAVEWESNGQPENNYKTTPPMLDSDGSFFLYSKLTVDKSRWQQGNVFSCSVMHEALHNHYTQKSLSLSPGK
# B3: REGN10105, VEGF mini-trap hIgG2 Fc w/2Cys (other)
# chain: SDTGRPFVEMYSEIPEIIHMTEGRELVIPCRVTSPNITVTLKKFPLDTLIPDGKRIIWDSRKGFIISNATYKEIGLLTCEATVNGHLYKTNYLTHRQTNTIIDVVLSPSHGIELSVGEKLVLNCTARTELNVGIDFNWEYPSSKHQHKKLVNRDLKTQSGSEMKKFLSTLTIDGVTRSDQGLYTCAASSGLMTKKNSTFVRVHEKVECPPCPAPPVA
# notes: IdeS cleaved from the IgG2 trap; they are kept as one molecule here; also called REGN10105-L3
# B4: REGN10103, VEGF mini-trap hIgG2 Fc w/4Cys (other)
# chain: SDTGRPFVEMYSEIPEIIHMTEGRELVIPCRVTSPNITVTLKKFPLDTLIPDGKRIIWDSRKGFIISNATYKEIGLLTCEATVNGHLYKTNYLTHRQTNTIIDVVLSPSHGIELSVGEKLVLNCTARTELNVGIDFNWEYPSSKHQHKKLVNRDLKTQSGSEMKKFLSTLTIDGVTRSDQGLYTCAASSGLMTKKNSTFVRVHEKERKCCVECPPCPAPPVA
# B5: mREGN10187, VEGF mini-trap hIgG4 stealth Fc (other)
# chain: B4 chain with R207S, C209Y, C210G, V211P, E212P
# notes: IdeS cleaved from REGN10187; also called Mini-REGN10187
# B6: mREGN10104, VEGF mini-trap hIgG1 stealth Fc (other)
# chain: SDTGRPFVEMYSEIPEIIHMTEGRELVIPCRVTSPNITVTLKKFPLDTLIPDGKRIIWDSRKGFIISNATYKEIGLLTCEATVNGHLYKTNYLTHRQTNTIIDVVLSPSHGIELSVGEKLVLNCTARTELNVGIDFNWEYPSSKHQHKKLVNRDLKTQSGSEMKKFLSTLTIDGVTRSDQGLYTCAASSGLMTKKNSTFVRVHEKDKTHTCPPCPAPPVA
# notes: IdeS cleaved from REGN10104; also called Mini-REGN10104
# B7: REGN10104, VEGF Trap hIgG1 stealth Fc (Fc fusion)
# chain: SDTGRPFVEMYSEIPEIIHMTEGRELVIPCRVTSPNITVTLKKFPLDTLIPDGKRIIWDSRKGFIISNATYKEIGLLTCEATVNGHLYKTNYLTHRQTNTIIDVVLSPSHGIELSVGEKLVLNCTARTELNVGIDFNWEYPSSKHQHKKLVNRDLKTQSGSEMKKFLSTLTIDGVTRSDQGLYTCAASSGLMTKKNSTFVRVHEKDKTHTCPPCPAPPVAGPSVFLFPPKPKDTLMISRTPEVTCVVVDVSQEDPEVQFNWYVDGVEVHNAKTKPREEQFNSTYRVVSVLTVLHQDWLNGKEYKCKVSNKGLPSSIEKTISKAKGQPREPQVYTLPPSRDELTKNQVSLTCLVKGFYPSDIAVEWESNGQPENNYKTTPPVLDSDGSFFLYSKLTVDKSRWQQGNVFSCSVMHEALHNHYTQKSLSLSPGK
# B8: REGN11095, VEGF mini-trap hIgG1 Mut GGGL Fc (other)
# chain: SDTGRPFVEMYSEIPEIIHMTEGRELVIPCRVTSPNITVTLKKFPLDTLIPDGKRIIWDSRKGFIISNATYKEIGLLTCEATVNGHLYKTNYLTHRQTNTIIDVVLSPSHGIELSVGEKLVLNCTARTELNVGIDFNWEYPSSKHQHKKLVNRDLKTQSGSEMKKFLSTLTIDGVTRSDQGLYTCAASSGLMTKKNSTFVRVHEKDKTHTCPPCPGGGLLG
# notes: also called Mini-REGN10514; mREGN10514
# B9: REGN11095 (Alexa 488) (other)
# chain: B8 chain
# modifications: tagged with Alexa Fluor 488 (AF488) through amine conjugation
# notes: also called REGN11095 AF488
# B10: REGN10105 (Alexa 488) (other)
# chain: B3 chain
# modifications: tagged with Alexa Fluor 488 (AF488) through amine conjugation
# notes: also called REGN10105 AF488
# Target: T1, Human VEGF121 (R&D SYSTEMS Cat #4644-VS)
# Experiment: cell-based or functional assay
row,"IC50, Inhibition of 20 pM VEGF121, VEGFR1 assay (luciferase) [M]",Binder
1,1.25e-11,B1
2,2.02e-11,B2
3,1.68e-11,B3
4,2.11e-11,B4
5,1.32e-11,B5
6,1.34e-11,B6
7,1.91e-11,B7

# Target: T2, Human VEGF165 (REGN110) (human, UniProt P15692-4 27-191)
# Experiment: cell-based or functional assay
row,"IC50, VEGFR1 40 pM VEGF165 (REGN110) (luciferase) [M]",Binder
1,2.19e-11,B8
2,1.06e-11,B3

# Target: T1, Human VEGF121 (R&D SYSTEMS Cat #4644-VS)
# Experiment: cell-based or functional assay
# Remark: another data set of the same source
row,"IC50, VEGFR1 40 pM R&D VEGF121 (luciferase) [M]",Binder
1,2.16e-11,B8
2,1.74e-11,B3

# Target: T1, Human VEGF121 (R&D SYSTEMS Cat #4644-VS)
# Experiment: cell-based or functional assay
# Remark: another data set of the same source
row,"IC50 (read off the curve); NFkB-luciferase reporter (RLU), 293/D9/VEGFR1 cells, VEGF121 constant 40 pM [A] [M]",Binder
1,~2e-11,B2

# Target: T1, Human VEGF121 (R&D SYSTEMS Cat #4644-VS)
# Experiment: cell-based or functional assay
# Remark: another data set of the same source
row,"IC50 (read off the curve); NFkB-luciferase reporter (RLU), 293/D9/VEGFR1 cells, VEGF121 constant 40 pM [B] [M]",Binder
1,~1e-11,B6
2,~2e-11,B7

# Target: T1, Human VEGF121 (R&D SYSTEMS Cat #4644-VS)
# Experiment: cell-based or functional assay
# Remark: another data set of the same source
row,"IC50 (read off the curve); NFkB-luciferase reporter (RLU), 293/D9/VEGFR1 cells, VEGF121 constant 40 pM [D] [M]",Binder
1,~1e-11,B1
2,~1e-11,B5

# Target: T1, Human VEGF121 (R&D SYSTEMS Cat #4644-VS)
# Experiment: cell-based or functional assay
# Remark: another data set of the same source
row,"IC50 (read off the curve); NFkB-luciferase reporter (RLU), 293/D9/VEGFR1 cells, VEGF121 constant 40 pM [E] [M]",Binder
1,~2e-11,B3
2,~2e-11,B4

# Target: T2, Human VEGF165 (REGN110)
# Experiment: SPR, 25C, trap captured by REGN18, hVEGF165 injected
# Experimental: (§1) Equilibrium dissociation constants (KD values) for human VEGF₁₆₅ binding to various purified VEGF mini-trap constructs were determined using a real-time surface plasmon resonance biosensor using a Biacore 3000 instrument. All binding studies were performed in 10 mM HEPES, 150 mM NaCl, 3 mM EDTA, and 0.05% v/v Surfactant Tween-20; pH 7.4 (HBS-ET) running buffer at 25° C. The Biacore sensor surface was first derivatized by amine coupling with a monoclonal mouse anti-VEGFR1 antibody (REGN18) to capture VEGF mini-trap constructs. Binding studies were performed on the following human VEGF reagents: human VEGF₁₆₅. […] Dissociation of bound VEGF₁₆₅ reagent from VEGF mini-trap constructs was monitored for 60 minutes in HBS-ET running buffer. Kinetic association (ka) and dissociation (kd) rate constants were determined by fitting the real-time sensorgrams to a 1:1 binding model using Scrubber 2.0c curve fitting software. Binding dissociation equilibrium constants (KD) and dissociative half-lives (t1/2) were calculated from the kinetic rate constants as: […]
2 nM VEGF165 Bound (RU),Kd [pM],koff [s⁻¹],kon [M⁻¹ s⁻¹],t½ [h],Binder
19.4,≤ 0.86,≤ 1e-05,1.16e+07,≥ 19.2,B8
14.9,≤ 0.865,≤ 1e-05,1.16e+07,≥ 19.2,B9
20.4,1.08,≤ 1e-05,9.3e+06,≥ 19.2,B3
18,≤ 0.74,≤ 1e-05,1.36e+07,≥ 19.2,B10

# Target: T2, Human VEGF165 (REGN110)
# Experiment: SPR (Biacore 3000), 25C, trap captured by REGN18, hVEGF165 injected
# Experimental: as §1
2.5 nM hVEGF165 Bound (RU),Kd [pM],koff [s⁻¹],kon [M⁻¹ s⁻¹],t½ [h],Binder
10.5,1.82,1.73e-05,9.5e+06,11.1,B1
4.2,≤ 1.37,≤ 1e-05,7.3e+06,≥ 19.2,B2
10.5,1.89,1.44e-05,7.62e+06,13.3,B3
14.8,≤ 1.08,≤ 1e-05,9.3e+06,≥ 19.2,B4
14.3,≤ 1.37,≤ 1e-05,7.3e+06,≥ 19.2,B5
12.2,1.78,1.7e-05,9.5e+06,11.3,B6
7.3,1.1,1.01e-05,9.2e+06,19.1,B7
